Reference: patent US20090214555A1
Where no end group is shown, it is not given here.

Target: rabbit polyclonal anti-Syn2vE1a antibodies
Test: epitope peptide competition: antisera pre-absorbed with 3 mg/ml synthetic epitope peptide, then Western blot on Syn2vE1a lysate

percent of anti-Syn2vE1a signals blocked: > 98%
Binder: CGIRRAPLYKRHPTGTA-NH2 [synthetic epitope peptide (C)…-amide]
